In article PMC3605159, “Twist1 Controls a Cell-Specification Switch Governing Cell Fate Decisions within the Cardiac Neural Crest” (PLoS Genetics, 2013):

T1: Sox10 (rat, UniProt O55170 1-466)
T1 sequence (looked up): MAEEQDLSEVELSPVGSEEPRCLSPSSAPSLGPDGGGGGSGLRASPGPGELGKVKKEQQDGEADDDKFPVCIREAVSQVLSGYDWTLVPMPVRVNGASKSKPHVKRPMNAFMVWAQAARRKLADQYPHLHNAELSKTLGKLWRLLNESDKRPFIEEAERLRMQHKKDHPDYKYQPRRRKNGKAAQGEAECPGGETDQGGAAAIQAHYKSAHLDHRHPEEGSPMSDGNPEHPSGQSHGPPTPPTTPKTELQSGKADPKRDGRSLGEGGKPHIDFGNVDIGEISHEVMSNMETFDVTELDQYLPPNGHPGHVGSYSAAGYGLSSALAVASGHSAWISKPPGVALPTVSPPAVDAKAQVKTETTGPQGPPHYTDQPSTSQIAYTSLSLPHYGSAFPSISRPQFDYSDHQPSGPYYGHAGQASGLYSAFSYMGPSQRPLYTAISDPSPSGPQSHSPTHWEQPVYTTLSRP


Biological target: T1, Sox10
Assay: cell-based or functional assay

Row | Binder | luciferase transactivation of the Phox2b promoter by Sox10 in HeLa cells with Twist1 co-expressed (Sox10 alone 48.9+/−2.2-fold) | luciferase transactivation of the Phox2b promoter by Sox10 in HeLa cells with Twist1 S192P co-expressed (Sox10 alone 48.9+/−2.2-fold)
1 | Twist1 (natural protein, UniProt P26687 1-206, looked up) MMQDVSSSPVSPADDSLSNSEEEPDRQQPASGKRGARKRRSSRRSAGGSAGPGGATGGGIGGGDEPGSPAQGKRGKKSAGGGGGGGAGGGGGGGGGSSSGGGSPQSYEELQTQRVMANVRERQRTQSLNEAFAALRKIIPTLPSDKLSKIQTLKLAARYIDFLYQVLQSDELDSKMASCSYVAHERLSYAFSVWRMEGAWSMSASH | 26.3 fold | –
2 | Twist1 S192P (natural protein, UniProt P26687 1-206, looked up) MMQDVSSSPVSPADDSLSNSEEEPDRQQPASGKRGARKRRSSRRSAGGSAGPGGATGGGIGGGDEPGSPAQGKRGKKSAGGGGGGGAGGGGGGGGGSSSGGGSPQSYEELQTQRVMANVRERQRTQSLNEAFAALRKIIPTLPSDKLSKIQTLKLAARYIDFLYQVLQSDELDSKMASCSYVAHERLSYAFPVWRMEGAWSMSASH | – | 49.3 fold
